B1: 1011 (protein, listed as Paenibacillus sp.)
chain: MQSNTAVLLKGGDAVYMKVKGDTDNMAAKDWGDWSARWIWLQEEQGNADKDARHERVYFRRVFELPAGTGKAYSLNMAITGDSRYRLFVNGQRQWAGPCKGHEHVQYYEEFNLEGILQPGINVIAVTVVHYAGTAPFEMGEDGPLSVWRSEQGGLLVEAEITADGQLVQELPTDTSWKAIRDLSYRLRPFPMMRWMGGLEEAAGDTALRDWTLPEYDDSAWSAARIVQPVRDDYGQLTPWQLERRPVPLLYEQEQCFWKLMRSSCGEGKALFTAGHRLELRDGASSTVPSIAGPAAEGVLVQAGQQLWLELDAGELTTGYLQLKLQGGGGSLITLQYAECYEEETGDEEVRRKAVRDEMREQVLRGGYDSYRPAGYGTEDQPEVYEPFWFRTFRYVRLEVHAGHEPLRITGINYRETGYPLQLQGSFHCSDERYNRLWELSVRTLSRCMHETYEDTPYYEQLQYTMDTRLMMEFTYLLSGDDRLARRAMEDYRASQLPNGMLQSRYPSVLPQVIPSFSLYWIGMIHDHYRVFRDLTLVKHYRTAMLSVLDWFDQRLTPEGLVDRTPRQYWNYYDWVEEWPLGAPDCTNEAPATLMSLMYAFALGQAAELLEASGWTQIAAELRQRKAAVNAAVLDNCRQADGPLFRDSPEAGPEVQLSQHTQVWAVLAGTVSAAEGEALLQTVLTDTSMAKLSLPMSYYLFRALELSGMYDRSYGLWTRWMKQLELGLTTLPEIDSADTRSDCHAWSALPITEFTRGILGVRQDIDGIILQPHCGDLQYASGAVSTEQGLITVSWEITTEEGVEVFRLEAVWTPGSAITVILPNGEVQKSDTGRIEIDIRGFNC
B2: 1012 (protein)
chain: MKSRLKQQIFAISLLACTAISPANALQTHLLREQFQNPSDEAKPWTFWYWMFGAVSKEGITADLEAMKRAGLGGTYLMPIKGIKEGPQYNGKAQQLTPEWWEMVRFSMEEADRLGLKLGMHICDGFALAGGPWMTPKESMQKIVWSDTIVDGGKIKGLHLPQPEAYEGFYEDISLFALPVKEEAADVMPAQITCANIATGNHIDIKKTVNMDDAGVIRSSYPCYIQYEYEQPFTCRNIEIILSGNNYQAHRLKVMASDDGVNYRLVKQLVPARQGWQNTDENSTHAIPATTARYFRFYWTPEGSEPGSEDMDAAKWKPNLKIKELRLHREARLDQWEGKAGLVWRVASSTKKEEIGEQDCYALSQIINLTDPFKNSPSDNFKERTLTATLPKGKWKLLRMGHTATGHTNATAGGGKGLECDKFNPKAVRKQFDNWFAQAFVKTNPDVARRVLKYMHVDSWECGSQNWSDTFAAEFRKRRGYDLMPYLPLLAGIPMESAERSEKILRDVRTTIGELVVDVFYQVLADCAKEYDCQFSAECVAPTMVSDGLLHYQKVDLPMGEFWLNSPTHDKPNDMLDAISGAHIYGKNIIQAEGFTEVRGTWNEHPGILKALLDRNYALGINRLFFHVYVHNPWLDRKPGMTLDGIGLFFQRDQTWWNKGAKAFCEYITRCQSLLQYGHPVADIAVFTGEEMPRRSILPERLVPSLPGIFGAERVESERIRLANEGQPLRVRPVGVTHSANMSDPEKWVNPLRGYAYDSFNKDALLRLAKAENGRMTLPGGASYKVLVLPLPRPMNPDPAALSPEVKQKINELKEAGILIPSLPYKEDDFSSYGLERDLIVPENIAWTHRQGEQGDIYFIANQLEETRTFTASMRIDGRKPECWNPVTGEINADIPYEQKSHRTEITLTLAPNESVFIVYPAEEDDKETSEKERKEKKDSVKEASETGLEATEYTVTFTANGKTIQRQELFDWSKEEDEQIRYYSGTAVYKTTFRWKSKVKEDQQVYLNLGKVCDLATVRVNGIDCGTIWTAPYRADITAALKKGVNELEIEVTNTWANALKGADEGKAPFDGIWTNAKYRRAENTLLPAGLLGPLNFDVANKNK
modifications: Bacteroides thetaiotaomicron
B3: 1004 (protein)
chain: METQVIKPIAVGDLQITRFTIEHFPGDALGIPTATPRMNWTYSRAVPDGSQILLKISRRVPGSPAKEECTYLPPEDNVLVPWQFTPLASREEVFATVQLVSAAHKPLSDPSATLHFEAGLMQEYEHVADFVGPSWAEPETDHRHLPLIRTEIAIKAKPKRARLYLSALGLVEAEINGVKIGNDALIPGWTNYEQRVQCWTYDVTGELNEGANAMGFWLGDGWYRGRLGFDGGYVNYYGDRLGVFAQLEVEYEDGGIEHVYSNAWDRQWKASLGPIVCSDLCEGERYDARLEQPGWSEPGFDDSSWKPVAEIFYDPAKIENPDTSPVRAQEINEPVSITRTGDTPDGRGIWLVDFGQNCTQRIHLHVKGLEAGQSVELHHVEVLEPNGEIATRTLRRGQQHDIYTSNGTDAWWEPRFAMHGFRYAQIEGVAGELTAADIECHVYHSVMDRAGELETSNPLLNRLHANALWSMRSNFVSVPQDCPQRDERMGWTGDICLFAPTAAYLYDVYGFLKSWLKDVRADQVKWGTVPFYVPFIPLGGWAHPQAISTWGDSAVEVPWVLYMESGDPQILADSYDLSRDWIDEVAGYLSPDGVWDRRPDYVLGQLGDWLDPTAPPDDPTQAMTEKELVATAFFARSCAQAEQIARILGNNEDAVRFGDLRRHVTSGFLARFTNLDGTMTSDTQCAYALAIAFGLLDGEPVRRVKAGNRLAKLVRESGGKVSTGFAGTPFVLPALTMTGHNEEAYGLLLSEECPSWLYQVKMGATTTWERWDSMRPDGSLNPGGMTSFNHYALGSVAEWMHAHIGGLEAIEAGWKRFRVAPVIGGGLDHASTSHVTPYGKASVAWKTSAEGVELDVTVPIGATAVVELPDHEPTELAGGTHHLVVAL
modifications: Bifidobacterium moukalabense
B4: 1028 (protein, listed as Formosa agariphila)
chain: MKYNKLLFSLLLLAVFCFSCKEEQKLQTSLDFDKVLLNAKSNPIAIESESPLFSWIIKAEGFGKSQSAYHILVASSLDKLDETHADVWNSNKVESSKSTFVKYEGKELKAATRYYWKVKVWDKSNQESNWSEPQYFQMGLLDESNWGEAKWITLTNDTRTSEYRFREYKTGRMEQPIQVDGFAASYFRNKINLNKEVDNAQVYICGLGYYEFFLNGEKVGDHVLDPAPSNYDKQAYYVNYDITEQLNSGENALGIILGNGFYGQNISWKNDPESDRDLAYGPPTVRVLLKLKYKDGTESEFFSDETWKESTGPIVFNNIYGGDTYDARFELGDWTSTNYDDSSWGFAKETAPEIKNISAQQIPAIKKLQDYEPQNVFKGSDGEWIVDFGQNIAGWVKLNVSEKEGQLIEVITTEALLTNGRDIFPGSTGGGANGMAQIYQYICKGDGQESWEPKFSYHGFRYAKIKGVSTKPDADMIKAVLVATDIQETGSFECSDDLFNKMHNISKWTIVDNVHGIPEDCPHREKCGWLGDAHAFCEYALYNYDMYDFYKKYMEDIRTQMLPTKGHNNPELKFQVPTMIAPGKRTSSYAKIDWGVATMYLPWYNYLYYGDDAIVNEYYPEMKDLTNFYLNFKGENGIMQDGMGDWCPPRWDRRTNPEAMECDPIISANAYFYDVLGIMETFAKMNNDGAFQSEMKAEKEALKDAFNKAFLVEIPNTDFKWYQSQTATVQALQFGMVPEEEIENVVNGLEYDIVEVKGGHHSTGIHGNRYIYTVLSKYGKADLAYRILTTPDFPSQTYIMNSGFTTWPERQFEWETMEGPTNSLNHPMHSGFSAYFFESLGGIKSSTKEAGYKQFIVNPEFPSQITQTKVSVPTPYGDIKNDWSFEEGKLSMTLEIPFNTEANLVLNQAELESLIINGKTFQNLQKNTKSVTLQGSNVILGSGKYKILYNKR
B5: 991 (protein)
chain: MKFARLNTLTVWLITSFITVSFTISEAISADLTPVNLRTEYKRNPVVDVDKPRLSWELTATGRGQIQTAYQILVASSAALLNAEKADLWQSAKVAGNATNQIEYSGKTLLSRTVCYWKVRSWDKNGQPGPWSAVATWEMGLLTKADWKADWIGNDLTALGKGKTYHLPPSPFFRKEIQLTAPVKKARLYVTSLGLYEYQINGKRIGNDYFTPGWTDYNKRVYYQTYDVTADVKPGKNALGAILADGWYAGYLGYALLVGNPVVKNFYGNVPLLKAQLEIEYTNGKTETIATDQSWKTSHGPILEADILNGETYNANLAFDNWSKTGFNDAGWKNSTIFPDKPDRQLEAYPGNPVRVFQELKAKTVTPKAGGHYLFDLGQNFAGMVRLRVKGNKGDTIRLRFGEVLFPNGDIMTENLRKARATDTYILKGDPQGETWTPKFTYHGFQYVDVAGFKSAPGLDAITGIVLTSATPETGSFETDNKLINKLYQNIVWTQRSNYVEVPTDCPQRDERLGWTGDAQAYVQSATFNNDISAFFTKWLVDLNDAQRPDNAYPIYAPAPNVRKTDTYSPGWSEAGIICPYTIYKTYGDTRVIQKFWPNMVAYLKFMEAKSQGTYVYKEGSFAEVSPKGGFGDWLSVGKKTPPDMLATLYFGYAASMMADMAKAIGKPDEATYYTTMFTKIKQAFRAHYTDETGRFKTNSAAYGNGEGYVDGEMGFEGHTQTAYANAIYMNMIAPDLTPKAGNWLVDLIKANDNKLSTGFLGVKPLLPSLSMTGHSNEAYKLLLSTEYPSWGFEVVNGANTIWERWNSYIKGKGFENNAGMNSFNHYAFGSVNEWLFGNAAGIKAAEAGYRTFIIRPELAPQGINFVNASYRSINGTIVSSWKKEGNRVRMKVVVPANTTATVFIPITKPDSVLESNKALTASQDIRVIGARDGYLQVTVGSGTYQFSAVN
modifications: Spirosoma linguale

experiment: Experiment 6-1: screening of rhamnosidases for derhamnosylation of saponins in treated bark extract (2%), QS-17 2310 to QS-18 2164 (PAR %); format: biochemical, Quillaja saponaria; conditions: TBE 2%, pH 7.5, 30 degC, 18 h; TIC peak area ratio percent, LCMS/MS; negative controls 3.061, 2.429

Molecule	Peak57 (PAR %) [%]
B1	3.124
B2	3.249
B3	2.942
B4	1.993
B5	3.443

experiment: Experiment 6-1: screening of rhamnosidases for derhamnosylation of saponins in treated bark extract (2%), desglucosyl-QS-17 2134 to QS-21 1988 (PAR %); format: biochemical, Quillaja saponaria; conditions: TBE 2%, pH 7.5, 30 degC, 18 h; TIC peak area ratio percent, LCMS/MS; negative controls 2.719, 2.158

Molecule	Peak75 (PAR %) [%]
B1	2.854
B2	2.610
B3	2.553
B4	2.885
B5	2.453

experiment: Experiment 6-1: specificity of rhamnosidases towards other rhamnose residues (C3 saccharide rhamnose, C28 saccharide rhamnose); format: biochemical, Quillaja saponaria; conditions: TBE 2%, pH 7.5, 30 degC, 18 h; LCMS/MS; negative controls 0.18, 0.17

Molecule	ratio PP/QS-21
B1	0.19
B2	0.16
B3	0.16
B4	0.15
B5	0.17

experiment: Experiment 6-1: screening of rhamnosidases for derhamnosylation of saponins in treated bark extract (2%), QS-17 2296 to QS-18 2150 (PAR %); format: biochemical, Quillaja saponaria; conditions: TBE 2%, pH 7.5, 30 degC, 18 h; TIC peak area ratio percent of rhamnosylated starting saponin to derhamnosylated product, LCMS/MS; negative controls 4.876, 5.225

Molecule	QS-17 (PAR %) [%]
B1	5.089
B2	5.068
B3	5.076
B4	5.081
B5	5.084

Reference: patent US20240026407A1, “MODIFICATION OF SAPONINS” (GLAXOSMITHKLINE BIOLOGICALS SA, priority 2020, published 2024)
